Measurements reported in patent publication US20240240209A1, “SYNTHESIS OF ENANTIOPURE CIS-A-IRONE FROM A RENEWABLE CARBON SOURCE” (Agency for Science, Technology and Research, priority 2021, published 2024).
Numbering of substitutions follows the chain as printed. Names may count otherwise. “Also recorded” adds a separate entry of the source.

Test: Cell lysate reaction of pMT enzymes with psi-ionone, irones quantified by HS-SPME-GCMS
Assay type: biochemical
Settings: for irone production / methyltransferase activity towards psi-ionone (in words): cell lysate reaction, vs parent or control; for cis-α-irone content (percentage of cis-α-irone in the irone mixture): cell extracts with psi-ionone; for fold change in cis-α-irone produced: AUC vs non-mutated (=1); for improvement of total turnover number (TTN): vs pMT1, TTN = cis-α-irone produced / soluble pMT enzyme
Protocol: Using the structure of pMT1 in complex with the cofactor S-adenosyl-L-homocysteine (SAH) and the substrate teleocidin A1 (PDB id: 5GM2) as a template, pMT1 bound to each of the four isomers of α-irone was modelled with the aim of identifying amino acid residues that could be critical to increase cis-α-irone or decrease trans-α-irone production (FIGS. 2d and 2e). […] Site-directed mutagenesis of the 24 residues was carried out with degenerative primers. Subsequently, the mutants of each site were pooled together, and examined if the activity or product-selectivity of the pooled mutants were increased (FIG. 8). This reduced the number of screening reactions to 24, which is manageable when a high-throughput enzymatic assay is not available. […] One residue was chosen and subjected to site-saturation mutagenesis by using degenerative primers containing NNN or NNK. The plasmid library was then transformed into E. coli BL21 (DE3) cells and plated on agar plate containing autoinduction media^19. […] Subsequently, the colonies were collected and resuspended in phosphate saline buffer. Equal number of cells was taken for lysis and cell lysate reactions were carried out in capped SPME-GC vials at 28° C. for 2 days. HS-SPME-GCMS analysis was used to quantify the amount of irones produced by each pooled-colony reaction. […] 24 residues including the control Gly85 (G85m) were subjected to site-saturation mutagenesis, using pMT1 as the template. […] The amount of cis-α-irone produced was estimated based on the area under the gas chromatogram curve (AUC). The fold change is calculated by comparing the AUC of cis-α-irone produced by the mutant enzyme to that of non-mutated.
For each pMT mutant, it was transformed into BL21 and grown in autoinduction media with 5 mM lactose at 20° C. for 36 hrs. Then, cells were pelleted and concentrated 10 times by adding 1 ml of PBS. The OD600 was measured and 40*600 OD*ul cells were transferred into a new 1.5 ml tube. The cells were spun down and resuspended in 600 μl of lysis buffer (1×DNase buffer, 150 mM NaCl, 0.5% glycerol, 1 mg/ml lysozyme and 20U of DNasel). The cells were incubated for 2 hrs at 20° C. with shaking at 300 rpm. Following that, 2 cycles of freeze-thaw was done to completely lyse the cells. At the end of the 2nd thawing, the cell lysate was used to setup a 1 ml reaction in 2 ml GC vials. The reaction consisted of 50 mM Tris (pH7), 10 mM MgCl2, 60 mM NaCl, 0.2 mM SAM and 10 mg/L of psi-ionone and caryophyllene each. To this, 500 μl of cell lysate was added while the remaining 100 μl was used for SDS-PAGE to analyze the total and soluble protein expression. The reaction was incubated for 2 days at 28° C., 300 rpm prior to extraction of cis-α-irone with 500 μl hexane. From this, 20 μl of organic layer was taken into 180 μl hexane for GCMS analysis.
For the mutant pMT activity screening, the reactants and products were analyzed by head space solid phase microextraction (HS-SPME) coupled with an Agilent 5977B gas chromatography (GC) system equipped with Agilent DB-5 ms column (30 m×250 μm×0.25 μm) and mass spectrometry (MS) with high efficiency source. The reaction mixtures were carried out in SPME vials which were incubated at 60° C. for 20 mins to allow the release of volatile compounds. The absorbent fiber (50/30 μm divinylbenzol/carboxen/polydimethyl-SPME fiber, SUPELCO) was then exposed to the headspace of the vial for 20 mins. The extracted analytes were desorbed at the GC inlet at 250° C. for 1 min and injected into GC with a split ratio of 200:1. The GC oven temperature increased from 50° C. to 140° C. at a rate of 10° C./min and held at 140° C. for 10 min. Subsequently, the temperature was increased to 320° C. at a rate of 60° C./min and held at 320° C. for 2 mins.

B1: ScMT: about 66% homologous enzyme from Streptomyces clavuligerus (protein, listed as Streptomyces clavuligerus)
chain: MPQELAGELRVTAAQVGAWYDQFGDIYHQTLGESIHCGLWFPPDEPHPARVDLVSLSSEAQDRFTDYLIKTLDPHADQHVLDIGCGTGRSALRLSQQRGAKVTGVAISKVQIEHANRLAETHDLSDRLVFEHADAMHLPYEDESFDSAWAIESLCHMDRAKALREAYRVLRPGGDFLLLESVLTNPLTEAEATSLDTMLAANTPLWLPEFFELITRAGFETLELKDLSANLAMTMNVLELVCHDRREEFTRRFGAEFTELLMAGLPEARNITARKTRFFMLLLRKPPVPAN
irone production / methyltransferase activity towards psi-ionone (in words): not active towards psi-ionone

B2: pMT11: pMT1 with Y200F S182E L273V L180A A202L Y65F C156D T91P (protein)
chain: MPQEARTPQQQVTADEVGDWYDKFGEVYHLTLGESVHCGLWFPPDAPVPQDMELVTMSSQAQDRFTDYLIETLDPKAGQHLLDIGCGTGRPALKAARQRGIAVTGVAVSKEQIAAANRLAAGHGLTERLTFEVADAMRLPYEDESFDCAWAIESLDHMDRAKALGEAWRVLKPGGDLLVAEEVVTEELTEPETALFETLFALNVPPRLGEFFDIVSGAGFHTLSLKDLSANLAMTMNVFALGVYSRRAEFTERFGAEFVDGLLAGLGSAQETVIRKTRFFMATLRKPAV
modifications: Modified from pMT1
notes: pMT1 with Y200F S182E L273V L180A A202L Y65F C156D T91P
irone production / methyltransferase activity towards psi-ionone (in words): improved cis-α-irone production both by the fold change and percentage

B3: pMT13: pMT12 with Y244A S245A G267P (protein)
chain: B2 chain with N231D, Y244A, S245A, G267P
modifications: Modified from pMT1
notes: pMT12 with Y244A S245A G267P
irone production / methyltransferase activity towards psi-ionone (in words): maintained the percentage of cis-α-irone produced while further improving the absolute amount produced

B4: pMT3: pMT1 with Y200F S182E (protein)
chain: B2 chain with F65Y, P91T, D156C, A180L, L202A, V273L
modifications: Modified from pMT1
notes: pMT1 with Y200F S182E
cis-α-irone content (percentage of cis-α-irone in the irone mixture): 74% | irone production / methyltransferase activity towards psi-ionone (in words): significant increase in cis-α-irone was detected; also recorded: predominantly 1R5S was produced | fold change in cis-α-irone produced (pMT2_S182 mutants): 5.4 | fold change in cis-α-irone produced (pMT3_E153 mutants): 1.0 | fold change in cis-α-irone produced (pMT3_L273 mutants): 1.0 | improvement of total turnover number (TTN): more than 1,000 fold

B5: pMT6: pMT1 with Y200F S182E L273V L180A A202L (protein)
chain: B2 chain with F65Y, P91T, D156C
modifications: Modified from pMT1
notes: pMT1 with Y200F S182E L273V L180A A202L
irone production / methyltransferase activity towards psi-ionone (in words): significantly increased the cis-α-irone concentration | β-irone share of the irone mixture (cell lysate with psi-ionone): ~30% | fold change in cis-α-irone produced (pMT5_A202 mutants): 4.3 | fold change in cis-α-irone produced (pMT6_C156 mutants): 1.0 | fold change in cis-α-irone produced (pMT6_Y65 mutants): 1.0

B6: pMT8: pMT1 with Y200F S182E L273V L180A A202L C156P (protein)
chain: B2 chain with F65Y, P91T, D156P
modifications: Modified from pMT1
notes: pMT1 with Y200F S182E L273V L180A A202L C156P
irone production / methyltransferase activity towards psi-ionone (in words): further improved the TTN of the enzyme | fold change in cis-α-irone produced (pMT6_C156 mutants): 1.1

B7: pMT2: pMT1 with Y200F (protein)
chain: B2 chain with F65Y, P91T, D156C, A180L, E182S, L202A, V273L
modifications: Modified from pMT1
notes: pMT1 with Y200F
cis-α-irone content (percentage of cis-α-irone in the irone mixture): ~68% | fold change in cis-α-irone produced (pMT1_Y200 mutants): 12.2 | fold change in cis-α-irone produced (pMT2_C156 mutants): 1.0 | fold change in cis-α-irone produced (pMT2_F196 mutants): 1.0 | fold change in cis-α-irone produced (pMT2_L180 mutants): 1.0 | fold change in cis-α-irone produced (pMT2_L232 mutants): 1.0 | fold change in cis-α-irone produced (pMT2_M236 mutants): 1.0 | fold change in cis-α-irone produced (pMT2_S182 mutants): 1.0 | fold change in cis-α-irone produced (pMT2_T277 mutants): 1.0 | fold change in cis-α-irone produced (pMT2_V36 mutants): 1.0 | improvement of total turnover number (TTN): > 12 fold

B8: pMT5: pMT1 with Y200F S182E L273V L180A (protein)
chain: B2 chain with F65Y, P91T, D156C, L202A
modifications: Modified from pMT1
notes: pMT1 with Y200F S182E L273V L180A
cis-α-irone content (percentage of cis-α-irone in the irone mixture): ~90% | fold change in cis-α-irone produced (pMT4_L180 mutants): 1.8 | fold change in cis-α-irone produced (pMT5_A102 mutants): 1.0 | fold change in cis-α-irone produced (pMT5_A202 mutants): 1.0 | fold change in cis-α-irone produced (pMT5_T104 mutants): 1

B9: pMT4: pMT1 with Y200F S182E L273V (protein)
chain: B2 chain with F65Y, P91T, D156C, A180L, L202A
modifications: Modified from pMT1
notes: pMT1 with Y200F S182E L273V
cis-α-irone content (percentage of cis-α-irone in the irone mixture): ~80% | irone production / methyltransferase activity towards psi-ionone (in words): highest cis-α-irone and lowest trans-α-irone production | fold change in cis-α-irone produced (pMT3_L273 mutants): 1.5 | fold change in cis-α-irone produced (pMT4_L180 mutants): 1 | fold change in cis-α-irone produced (pMT4_T277 mutants): 1.0

B10: pMT14: pMT13 with E197R (protein)
chain: B2 chain with E197R, N231D, Y244A, S245A, G267P
modifications: Modified from pMT1
notes: pMT13 with E197R
irone production / methyltransferase activity towards psi-ionone (in words): reduced the fold change of cis-α-irone to a similar level as pMT10

B11: P191S: pMT12 with P191S (protein)
chain: B2 chain with P191S, N231D
modifications: Modified from pMT1
in-vitro production of cis-α-irone (in words) (single mutations vs parent (pMT7 or pMT12)): moderate increase

B12: pMT1_Y200L: pMT1 with Y200L (protein)
chain: B2 chain with F65Y, P91T, D156C, A180L, E182S, F200L, L202A, V273L
irone production / methyltransferase activity towards psi-ionone (in words): improved trans-α-irone production | fold change in cis-α-irone produced (pMT1_Y200 mutants): 0.4

B13: SaMT: methyltransferase from Streptomyces albireticuli, about 68% sequence identity to pMT1 (protein, listed as Streptomyces albireticuli)
chain: MPQESAQELKVTADEVGDWYDRFGDIYHETLGESVHCGLWFPPDEPHPTSMDLVDLSSRAQDRYTDYLIETLDPRPGDHVLDIGCGTGRSALRLVQQRDARVTGVAISKEQIARADRLANEHGLTDRLTFAYADAQALPYEDGTFDRAWAVESICHMDRAKALQEAWRVLRPGGDLMVLESVLTGELTAEDTAVFQVMLASNLPPTLPEFFGLVGDAGFETLELKDLSANLAMTMNVMALVCHDRKEEFTERFGAEFMEGVVQGLPKAREVVARKTRFFLVMLRKPLA
irone production / methyltransferase activity towards psi-ionone (in words): converted psi-ionone to predominantly trans-α-irone
